Reference: article PMC4200780, “Biochemical Characterization of a Carboxylesterase from the Archaeon Pyrobaculum sp. 1860 and a Rational Explanation of Its Substrate Specificity and Thermostability” (International Journal of Molecular Sciences, 2014)

Tests used:
Assay in all cases: p-nitrophenol release, Lineweaver-Burk
Type in all cases: biochemical, Pyrobaculum ferrireducens
[1] = substrate: CCCCCCCCCC(=O)Oc1ccc([N+](=O)[O-])cc1; conditions: 50 mM Tris-HCl pH 9.0, 80 °C, substrate tested at 0.1-3 mM only
From the text: (§1) p-nitrophenol release, Lineweaver-Burk on rP186_1588 ([…]_1588)

[2] = substrate: CC(=O)Oc1ccc([N+](=O)[O-])cc1; conditions: 50 mM Tris-HCl pH 9.0, 80 °C
From the text: as §1

[3] = substrate: CCCC(=O)Oc1ccc([N+](=O)[O-])cc1; conditions: 50 mM Tris-HCl pH 9.0, 80 °C
From the text: as §1

[4] = substrate: CCCCCCCC(=O)Oc1ccc([N+](=O)[O-])cc1; conditions: 50 mM Tris-HCl pH 9.0, 80 °C
From the text: as §1

B1: rP186_1588 (P186_1588) (Pyrobaculum ferrireducens) (protein)
chain: MSEKYVAVEGRRVRYLVGGSGRPVVLLHGWSFNADTWVESGVFNSLAGHFAVYAIDMPYGIRTKSERFQAPRREYAVFLRRVLDALDLADPPLVGPSASGEVVLWYVAKRLPTRAAVVVGPVGLAGELLEELRGAGVPILAVWGEGDEVSPPSRASLLRDVAKVVILRDAGHAAYLDKPGEFVEVVLDFLRGVY
notes: full length 194 aa (21,131 Da calculated, ~23 kDa on SDS-PAGE), His-tagged, synthetic gene in pET-28a(+) NdeI/BamHI, E. coli BL21(DE3), Ni-NTA purified, tag removal not mentioned
Km [1]: 4990 ± 210 µM | kcat [1]: 6.19 ± 0.33 s⁻¹ | kcat/Km [1]: 1240 ± 70 M⁻¹ s⁻¹ | Km [2]: 350 ± 10 µM | kcat [2]: 11.7 ± 0.48 s⁻¹ | kcat/Km [2]: 33300 ± 1370 M⁻¹ s⁻¹ | Km [3]: 1270 ± 40 µM | kcat [3]: 9.12 ± 0.62 s⁻¹ | kcat/Km [3]: 7180 ± 190 M⁻¹ s⁻¹ | Km [4]: 2640 ± 140 µM | kcat [4]: 6.36 ± 0.28 s⁻¹ | kcat/Km [4]: 2410 ± 110 M⁻¹ s⁻¹
